Literature values as cited in paper PMC2848813.
pKd: −log10 of the molar value.

Target: Hsp33 (Escherichia coli) (UniProt P0A6Y5)

In the case of Hsp33 (from UniProt P0A6Y5), the pKd is listed as 6.22.
